From publication doi:10.1101/2024.05.03.592356 (bioRxiv, 2024)

Target: the molecule itself
Assay: crystal structure

B1: RdmB, N-terminal His6-tagged (enzyme, Streptomyces purpurascens)
chain: MSSSSPGEPLEPTDQDLDVLLKNLGNLVTPMALRVAATLRLVDHLLAGADTLAGLADRTDTHPQALSRLVRHLTVVGVLEGGEKQGRPLRPTRLGMLLADGHPAQQRAWLDLNGAVSHADLAFTGLLDVVRTGRPAYAGRYGRPFWEDLSADVALADSFDALMSCDEDLAYEAPADAYDWSAVRHVLDVGGGNGGMLAAIALRAPHLRGTLVELAGPAERARRRFADAGLADRVTVAEGDFFKPLPVTADVVLLSFVLLNWSDEDALTILRGCVRALEPGGRLLVLDRADVEGDGADRFFSTLLDLRMLTFMGGRVRTRDEVVDLAGSAGLALASERTSGSTTLPFDFSILEFTAVSEEAAPAAQASEALPAQE
binding result: binds
